{"source": "paper PMC4453016", "about": "“Novel Bifunctional Cyclic Chelator for ^89Zr Labeling–Radiolabeling and Targeting Properties of RGD Conjugates” (Molecular Pharmaceutics, 2015)", "key": {"[1]": {"system": "αvβ3 integrin positive M21 and αvβ3 integrin negative M21-L tumor xenografts", "parameters": "species or system BALB/c nude mice", "conditions": "mouse, in vivo, iv, 1 h", "protocol": "(§1) For the evaluation of biodistribution, four healthy female BALB/c mice (Charles River Laboratories, Sulzfeld, GER) were intravenously injected with [^89Zr]TAFC (∼1.5 MBq/mouse, ∼4 μg of precursor) into the tail vein and sacrificed at 6 h postinjection (p.i.). For the evaluation of tumor uptake of [^89Zr]FSC(succ-RGD)3 female, athymic BALB/c nude mice (Charles River Laboratories) were used. For the induction of tumor xenografts mice were injected subcutaneously with 5 × 10^6 αvβ3 integrin positive M21 cells into the right hind limb and with 5 × 10^6 αvβ3 integrin negative M21-L cells (negative control) into the left hind limb of the same mouse (n = 4). The tumors were allowed to grow until they had reached a volume of 0.3 to 0.6 cm^3. On the day of the experiment [^89Zr]FSC(succ-RGD)3 (∼0.5 MBq/mouse, ∼0.5 μg of peptide) was intravenously injected in the lateral tail vein. Mice were sacrificed by cervical dislocation at 1, 2, and 4 h after injection. Organs (spleen, pancreas, stomach, intestine, kidney, liver, heart, and lung), blood, muscle tissue, bone, and tumors were dissected and weighted. As a comparison, four tumor-bearing mice were intravenously injected in the tail vein with [^68Ga]FSC(succ-RGD)3 (∼0.5 MBq/mouse, ∼0.5 μg of precursor) and sacrificed at 1 h p.i. Activity of the different samples was measured in the gamma counter. Results were expressed as percentage of injected dose per gram tissue (% ID/g)."}, "[2]": {"system": "M21 cells (αvβ3 integrin positive)", "test": "Internalization assay", "assay_type": "cell-based, human", "conditions": "37 °C, 90 min, total series", "protocol": "M21 cells (αvβ3 integrin positive) were diluted with RPMI 1640 (Gibco, Invitrogen Corporation, Paisley, UK) containing 1% glutamine (m/v), 1% bovine serum albumin (BSA) (m/v), CaCl2 (1 mM), MgCl2 (1 mM), and MnCl2 (10 mM) to a concentration of 2.0 × 10^6 cells/mL. Aliquots of 1 mL cell solution were transferred to Eppendorf tubes for incubation at 37 °C for 1 h. After addition of [^89Zr]FSC(RGDfE)3, [^89Zr]FSC(succ-RGD)3, or [^89Zr]FSC(Mal-RGD)3 (approximately 1.5 × 10^6 cpm), the cells were incubated in triplicates with either PBS with 0.5% BSA (150 μL, total series) or with 10 μM c(RGDyV) in PBS/0.5% BSA (150 μL, nonspecific series) at 37 °C for 90 min. After the incubation time the tubes were centrifuged, and incubation was stopped by removal of the medium. Then the cells were washed twice with ice-cold TRIS-buffered saline. Subsequently, the cells were incubated two times in acid wash buffer (20 mM acetate buffer, pH 4.5) at 37 °C for 5 min. Then the tubes were centrifuged, and the supernatant was collected in plastic vials (membrane bound activity). In a last step the cells were lysed by addition of 2 M NaOH, and the radioactivity associated with cells was collected in plastic vials (internalized radioligand fraction). Protein content in the NaOH fraction was determined using a spectrometric method (Bradford assay). The internalized activity was calculated and expressed as percentage of total activity per milligram protein."}, "[3]": {"conditions": "pH 7.4"}, "[4]": {"parameters": "species or system BALB/c nude mice", "conditions": "mouse, in vivo, iv", "protocol": "as §1"}, "[5]": {"system": "αvβ3 integrin positive M21 and αvβ3 integrin negative M21-L tumor xenografts", "assay_type": "in vivo, BALB/c nude mice", "conditions": "~5 MBq/mouse i.v., monitoring period of 24 h", "protocol": "MicroPET/CT imaging experiments were conducted on an Inveon microPET/CT scanner (Siemens Preclinical Solutions, Knoxville, USA). A group of four M21-tumor xenograft bearing BALB/c nude mice were administered with [^89Zr]FSC(succ-RGD)3 (∼5 MBq/mouse, ∼5 μg of peptide) via intravenous tail vein injection. MicroPET images were acquired under general anesthesia (isoflurane/O2) for 20 min. PET data for each mouse were recorded via static scans at 1, 4, and 24 h p.i. The microPET scans were reconstructed with Inveon Acquisition Workplace software (version 1.5; Siemens Preclinical Solutions), using a 3-dimensional fast maximum a posteriori algorithm with the following parameters: matrix, 256 × 256 × 161; pixel size, 0.4 × 0.4 × 0.8 mm; β-value of 1.5 mm resolution with uniform variance."}, "[6]": {"test": "Stability assay in 1000-fold molar excess of EDTA solution (ITLC)", "assay_type": "physicochemical", "conditions": "competitor EDTA 1000-fold excess, 37 °C, n = 3", "protocol": "Determination of the stability of [^89Zr]DFO, [^89Zr]TAFC, and [^89Zr]FSC-RGD conjugates was carried out by incubating the radioligands in PBS, 1000-fold molar excess of EDTA solution with different pH (pH 7 and pH 6; radioligand vs EDTA: 25 μM vs 25 mM) as well as in human serum for 7 days at 37 °C, respectively. At selected time points three aliquots of PBS and EDTA solution were analyzed directly via ITLC, while the three serum aliquots were mixed with 500 μL of CH3CN, vortexed, and centrifuged at 20,000 rcf for 2 min prior to analysis."}, "[7]": {"conditions": "uptake in αvβ3 integrin positive M21 tumor"}}, "note": "Like-named read-outs stand apart in the source and are kept apart here."}
{"compound": "C/C1=C/C(=O)N(O)CCC[C@H](NC(=O)CCC(=O)NCCCC[C@@H]2NC(=O)[C@@H](Cc3ccccc3)NC(=O)[C@H](CC(=O)O)NC(=O)CNC(=O)[C@H](CCCNC(=N)N)NC2=O)C(=O)OCC/C(C)=C\\C(=O)N(O)CCC[C@H](NC(=O)CCC(=O)NCCCC[C@@H]2NC(=O)[C@@H](Cc3ccccc3)NC(=O)[C@H](CC(=O)O)NC(=O)CNC(=O)[C@H](CCCNC(=N)N)NC2=O)C(=O)OCC/C(C)=C\\C(=O)N(O)CCC[C@H](NC(=O)CCC(=O)NCCCC[C@@H]2NC(=O)[C@@H](Cc3ccccc3)NC(=O)[C@H](CC(=O)O)NC(=O)CNC(=O)[C@H](CCCNC(=N)N)NC2=O)C(=O)OCC1", "note": "[[^68Ga]FSC(succ-RGD)3] [metal not drawn, reference compound]", "values": [{"measurement": "blood activity", "setting": "[1]", "value": "0.63 ± 0.26", "unit": "% ID/g"}, {"measurement": "uptake in the spleen", "setting": "[1]", "value": "3.27 ± 0.64", "unit": "% ID/g"}, {"measurement": "uptake in αvβ3 integrin negative M21-L tumors", "setting": "[1]", "value": "1.10 ± 0.30", "unit": "% ID/g"}]}
{"compound": "C/C1=C/C(=O)N(O)CCC[C@H](NC(=O)CCN2C(=O)CC(SCCOCCOCCOCCOCCC(=O)NCCCC[C@@H]3NC(=O)[C@@H](Cc4ccccc4)NC(=O)[C@H](CC(=O)O)NC(=O)CNC(=O)[C@H](CCCNC(=N)N)NC3=O)C2=O)C(=O)OCC/C(C)=C\\C(=O)N(O)CCC[C@H](NC(=O)CCN2C(=O)CC(SCCOCCOCCOCCOCCC(=O)NCCCC[C@@H]3NC(=O)[C@@H](Cc4ccccc4)NC(=O)[C@H](CC(=O)O)NC(=O)CNC(=O)[C@H](CCCNC(=N)N)NC3=O)C2=O)C(=O)OCC/C(C)=C\\C(=O)N(O)CCC[C@H](NC(=O)CCN2C(=O)CC(SCCOCCOCCOCCOCCC(=O)NCCCC[C@@H]3NC(=O)[C@@H](Cc4ccccc4)NC(=O)[C@H](CC(=O)O)NC(=O)CNC(=O)[C@H](CCCNC(=N)N)NC3=O)C2=O)C(=O)OCC1", "note": "(stereo partly shown) [[^89Zr]FSC(Mal-RGD)3, metal not drawn]", "values": [{"measurement": "internalized activity, % of total activity per milligram protein", "setting": "[2]", "value": "1.6 ± 0.1", "unit": "% cpm/mg"}, {"measurement": "logD", "setting": "[3]", "value": -2.9}]}
{"compound": "C/C1=C/C(=O)N(O)CCC[C@H](NC(=O)CC[C@@H]2NC(=O)[C@@H](Cc3ccccc3)NC(=O)[C@H](CC(=O)O)NC(=O)CNC(=O)[C@H](CCCNC(=N)N)NC2=O)C(=O)OCC/C(C)=C\\C(=O)N(O)CCC[C@H](NC(=O)CC[C@@H]2NC(=O)[C@@H](Cc3ccccc3)NC(=O)[C@H](CC(=O)O)NC(=O)CNC(=O)[C@H](CCCNC(=N)N)NC2=O)C(=O)OCC/C(C)=C\\C(=O)N(O)CCC[C@H](NC(=O)CC[C@@H]2NC(=O)[C@@H](Cc3ccccc3)NC(=O)[C@H](CC(=O)O)NC(=O)CNC(=O)[C@H](CCCNC(=N)N)NC2=O)C(=O)OCC1", "note": "[[^89Zr]FSC(RGDfE)3, metal not drawn]", "values": [{"measurement": "internalized activity, % of total activity per milligram protein", "setting": "[2]", "value": "2.3 ± 0.3", "unit": "% cpm/mg"}, {"measurement": "logD", "setting": "[3]", "value": -3}]}
{"compound": "C/C1=C/C(=O)N(O)CCC[C@H](NC(=O)CCC(=O)NCCCC[C@@H]2NC(=O)[C@@H](Cc3ccccc3)NC(=O)[C@H](CC(=O)O)NC(=O)CNC(=O)[C@H](CCCNC(=N)N)NC2=O)C(=O)OCC/C(C)=C\\C(=O)N(O)CCC[C@H](NC(=O)CCC(=O)NCCCC[C@@H]2NC(=O)[C@@H](Cc3ccccc3)NC(=O)[C@H](CC(=O)O)NC(=O)CNC(=O)[C@H](CCCNC(=N)N)NC2=O)C(=O)OCC/C(C)=C\\C(=O)N(O)CCC[C@H](NC(=O)CCC(=O)NCCCC[C@@H]2NC(=O)[C@@H](Cc3ccccc3)NC(=O)[C@H](CC(=O)O)NC(=O)CNC(=O)[C@H](CCCNC(=N)N)NC2=O)C(=O)OCC1", "note": "[[^89Zr]FSC(succ-RGD)3, metal not drawn]", "values": [{"measurement": "tissue uptake at 1 h", "setting": "[4]; activity in kidneys", "value": "6.42 ± 0.72", "unit": "%ID/g"}, {"measurement": "tissue uptake at 2 h", "setting": "[4]; activity in kidneys", "value": "5.77 ± 0.2", "unit": "%ID/g"}, {"measurement": "tissue uptake at 4 h", "setting": "[4]; activity in kidneys", "value": "5.26 ± 0.9", "unit": "%ID/g"}, {"measurement": "tissue uptake at 1 h", "setting": "[4]; activity in the bone", "value": "0.71 ± 0.05", "unit": "%ID/g"}, {"measurement": "tissue uptake at 2 h", "setting": "[4]; activity in the bone", "value": "0.79 ± 0.28", "unit": "%ID/g"}, {"measurement": "tissue uptake at 4 h", "setting": "[4]; activity in the bone", "value": "0.73 ± 0.27", "unit": "%ID/g"}, {"measurement": "tissue uptake at 2 h", "setting": "[4]; blood activity", "value": 0.15, "unit": "%ID/g"}, {"measurement": "tissue uptake at 4 h", "setting": "[4]; blood activity", "value": "0.1 ± 0.01", "unit": "%ID/g"}, {"measurement": "tissue uptake at 1 h", "setting": "[4]; uptake in the spleen", "value": "1.78 ± 0.22", "unit": "%ID/g"}, {"measurement": "tissue uptake at 4 h", "setting": "[4]; uptake in αvβ3 integrin negative M21-L tumors", "value": 0.5, "unit": "%ID/g"}, {"measurement": "tissue uptake at 1 h", "setting": "[4]; [7]", "value": "2.83 ± 0.6", "unit": "%ID/g"}, {"measurement": "tissue uptake at 2 h", "setting": "[4]; [7]", "value": "3.48 ± 0.45", "unit": "%ID/g"}, {"measurement": "tissue uptake at 4 h", "setting": "[4]; [7]", "value": "2.86 ± 0.3", "unit": "%ID/g"}, {"measurement": "logD", "setting": "[3]", "value": -2.9}]}
{"compound": "C/C1=C/C(=O)N(O)CCC[C@H](NC(=O)CCC(=O)NCCCC[C@@H]2NC(=O)[C@@H](Cc3ccccc3)NC(=O)[C@H](CC(=O)O)NC(=O)CNC(=O)[C@H](CCCNC(=N)N)NC2=O)C(=O)OCC/C(C)=C\\C(=O)N(O)CCC[C@H](NC(=O)CCC(=O)NCCCC[C@@H]2NC(=O)[C@@H](Cc3ccccc3)NC(=O)[C@H](CC(=O)O)NC(=O)CNC(=O)[C@H](CCCNC(=N)N)NC2=O)C(=O)OCC/C(C)=C\\C(=O)N(O)CCC[C@H](NC(=O)CCC(=O)NCCCC[C@@H]2NC(=O)[C@@H](Cc3ccccc3)NC(=O)[C@H](CC(=O)O)NC(=O)CNC(=O)[C@H](CCCNC(=N)N)NC2=O)C(=O)OCC1", "note": "[[^89Zr]FSC(succ-RGD)3] [metal not drawn]", "values": [{"measurement": "uptake in αvβ3 integrin negative M21-L tumors in microPET/CT", "setting": "[5]", "value": "no uptake"}, {"measurement": "visualization of αvβ3 integrin positive M21 tumors in microPET/CT", "setting": "[5]", "value": "clearly visualized over the whole monitoring period of 24 h"}, {"measurement": "blood activity", "setting": "[1]", "value": "0.16 ± 0.04", "unit": "% ID/g"}, {"measurement": "% intact starting species by incubation time", "setting": "[6]; pH 7, 1 h", "value": "98.2 ± 0.1", "unit": "%"}, {"measurement": "% intact starting species by incubation time", "setting": "[6]; pH 7, 4 h", "value": "98.2 ± 0.1", "unit": "%"}, {"measurement": "% intact starting species by incubation time", "setting": "[6]; pH 7, 1 d", "value": "96.5 ± 0.5", "unit": "%"}, {"measurement": "% intact starting species by incubation time", "setting": "[6]; pH 7, 3 d", "value": "96.0 ± 0.4", "unit": "%"}, {"measurement": "% intact starting species by incubation time", "setting": "[6]; pH 7, 5 d", "value": "94.5 ± 0.3", "unit": "%"}, {"measurement": "% intact starting species by incubation time", "setting": "[6]; pH 7, 7 d", "value": "93.9 ± 0.7", "unit": "%"}, {"measurement": "internalized activity, % of total activity per milligram protein", "setting": "[2]", "value": "2.1 ± 0.3", "unit": "% cpm/mg"}]}
